The labels stand for the following.
B1: BCY16843 (peptide)
peptide: ACYLPDYLCGDEK(Pent4ynoyl)CA-NH2
modifications: linker 2-9-14 via TATA; N-terminus assumed
SMILES: C#CCCC(=O)NCCCC[C@@H]1NC(=O)[C@H](CCC(=O)O)NC(=O)[C@H](CC(=O)O)NC(=O)CNC(=O)[C@@H]2CSCCC(=O)N3CN(CN(C3)C(=O)CCSC[C@@H](C(=O)N[C@@H](C)C(N)=O)NC1=O)C(=O)CCSC[C@H](NC(=O)[C@H](C)N)C(=O)N[C@@H](Cc1ccc(O)cc1)C(=O)N[C@@H](CC(C)C)C(=O)N1CCC[C@H]1C(=O)N[C@@H](CC(=O)O)C(=O)N[C@@H](Cc1ccc(O)cc1)C(=O)N[C@@H](CC(C)C)C(=O)N2
notes: scaffold TATA
B2: BCY16837 (peptide)
peptide: ACYLPK(Pent4ynoyl)YLCGDEYCA-NH2
modifications: linker 2-9-14 via TATA; N-terminus assumed
SMILES: C#CCCC(=O)NCCCC[C@@H]1NC(=O)[C@@H]2CCCN2C(=O)[C@H](CC(C)C)NC(=O)[C@H](Cc2ccc(O)cc2)NC(=O)[C@@H](NC(=O)[C@H](C)N)CSCCC(=O)N2CN3CN(C2)C(=O)CCSC[C@@H](C(=O)N[C@@H](C)C(N)=O)NC(=O)[C@H](Cc2ccc(O)cc2)NC(=O)[C@H](CCC(=O)O)NC(=O)[C@H](CC(=O)O)NC(=O)CNC(=O)[C@H](CSCCC3=O)NC(=O)[C@H](CC(C)C)NC(=O)[C@H](Cc2ccc(O)cc2)NC1=O
notes: scaffold TATA
B3: BCY16840 (peptide)
peptide: ACYLPDYLCK(Pent4ynoyl)DEYCA-NH2
modifications: linker 2-9-14 via TATA; N-terminus assumed
SMILES: C#CCCC(=O)NCCCC[C@@H]1NC(=O)[C@@H]2CSCCC(=O)N3CN(CN(C3)C(=O)CCSC[C@@H](C(=O)N[C@@H](C)C(N)=O)NC(=O)[C@H](Cc3ccc(O)cc3)NC(=O)[C@H](CCC(=O)O)NC(=O)[C@H](CC(=O)O)NC1=O)C(=O)CCSC[C@H](NC(=O)[C@H](C)N)C(=O)N[C@@H](Cc1ccc(O)cc1)C(=O)N[C@@H](CC(C)C)C(=O)N1CCC[C@H]1C(=O)N[C@@H](CC(=O)O)C(=O)N[C@@H](Cc1ccc(O)cc1)C(=O)N[C@@H](CC(C)C)C(=O)N2
notes: scaffold TATA
B4: BCY16842 (peptide)
peptide: ACYLPDYLCGDK(Pent4ynoyl)YCA-NH2
modifications: linker 2-9-14 via TATA; N-terminus assumed
SMILES: C#CCCC(=O)NCCCC[C@@H]1NC(=O)[C@H](CC(=O)O)NC(=O)CNC(=O)[C@@H]2CSCCC(=O)N3CN(CN(C3)C(=O)CCSC[C@@H](C(=O)N[C@@H](C)C(N)=O)NC(=O)[C@H](Cc3ccc(O)cc3)NC1=O)C(=O)CCSC[C@H](NC(=O)[C@H](C)N)C(=O)N[C@@H](Cc1ccc(O)cc1)C(=O)N[C@@H](CC(C)C)C(=O)N1CCC[C@H]1C(=O)N[C@@H](CC(=O)O)C(=O)N[C@@H](Cc1ccc(O)cc1)C(=O)N[C@@H](CC(C)C)C(=O)N2
notes: scaffold TATA
B5: BCY18280 (peptide)
peptide: ACDLTT[2Pal]NCQWGICA-NH2
modifications: linker 2-9-14 via TATA; N-terminus assumed
SMILES: CC[C@H](C)[C@@H]1NC(=O)CNC(=O)[C@H](Cc2c[nH]c3ccccc23)NC(=O)[C@H](CCC(N)=O)NC(=O)[C@@H]2CSCCC(=O)N3CN(CN(C3)C(=O)CCSC[C@@H](C(=O)N[C@@H](C)C(N)=O)NC1=O)C(=O)CCSC[C@H](NC(=O)[C@H](C)N)C(=O)N[C@@H](CC(=O)O)C(=O)N[C@@H](CC(C)C)C(=O)N[C@@H]([C@@H](C)O)C(=O)N[C@@H]([C@@H](C)O)C(=O)N[C@@H](Cc1ccccn1)C(=O)N[C@@H](CC(N)=O)C(=O)N2
notes: scaffold TATA
B6: BCY18292 (peptide)
peptide: ACDLTTHNCQW[dA]ICA-NH2
modifications: linker 2-9-14 via TATA; N-terminus assumed
SMILES: CC[C@H](C)[C@@H]1NC(=O)[C@@H](C)NC(=O)[C@H](Cc2c[nH]c3ccccc23)NC(=O)[C@H](CCC(N)=O)NC(=O)[C@@H]2CSCCC(=O)N3CN(CN(C3)C(=O)CCSC[C@@H](C(=O)N[C@@H](C)C(N)=O)NC1=O)C(=O)CCSC[C@H](NC(=O)[C@H](C)N)C(=O)N[C@@H](CC(=O)O)C(=O)N[C@@H](CC(C)C)C(=O)N[C@@H]([C@@H](C)O)C(=O)N[C@@H]([C@@H](C)O)C(=O)N[C@@H](Cc1c[nH]cn1)C(=O)N[C@@H](CC(N)=O)C(=O)N2
notes: scaffold TATA
B7: BCY17662 (peptide)
peptide: ACYLPDYLC[dK](Pent4ynoyl)DEYCA-NH2
modifications: linker 2-9-14 via TATA; N-terminus assumed
SMILES: C#CCCC(=O)NCCCC[C@H]1NC(=O)[C@@H]2CSCCC(=O)N3CN(CN(C3)C(=O)CCSC[C@@H](C(=O)N[C@@H](C)C(N)=O)NC(=O)[C@H](Cc3ccc(O)cc3)NC(=O)[C@H](CCC(=O)O)NC(=O)[C@H](CC(=O)O)NC1=O)C(=O)CCSC[C@H](NC(=O)[C@H](C)N)C(=O)N[C@@H](Cc1ccc(O)cc1)C(=O)N[C@@H](CC(C)C)C(=O)N1CCC[C@H]1C(=O)N[C@@H](CC(=O)O)C(=O)N[C@@H](Cc1ccc(O)cc1)C(=O)N[C@@H](CC(C)C)C(=O)N2
notes: scaffold TATA
B8: BCY18282 (peptide)
peptide: ACDLTT[Ala(4-thiazolyl)]NCQWGICA-NH2
modifications: linker 2-9-14 via TATA; N-terminus assumed
SMILES: CC[C@H](C)[C@@H]1NC(=O)CNC(=O)[C@H](Cc2c[nH]c3ccccc23)NC(=O)[C@H](CCC(N)=O)NC(=O)[C@@H]2CSCCC(=O)N3CN(CN(C3)C(=O)CCSC[C@@H](C(=O)N[C@@H](C)C(N)=O)NC1=O)C(=O)CCSC[C@H](NC(=O)[C@H](C)N)C(=O)N[C@@H](CC(=O)O)C(=O)N[C@@H](CC(C)C)C(=O)N[C@@H]([C@@H](C)O)C(=O)N[C@@H]([C@@H](C)O)C(=O)N[C@@H](Cc1cscn1)C(=O)N[C@@H](CC(N)=O)C(=O)N2
notes: scaffold TATA
B9: BCY18287 (peptide)
peptide: ACDLTTHNCQ[1Nal]GICA-NH2
modifications: linker 2-9-14 via TATA; N-terminus assumed
SMILES: CC[C@H](C)[C@@H]1NC(=O)CNC(=O)[C@H](Cc2cccc3ccccc23)NC(=O)[C@H](CCC(N)=O)NC(=O)[C@@H]2CSCCC(=O)N3CN(CN(C3)C(=O)CCSC[C@@H](C(=O)N[C@@H](C)C(N)=O)NC1=O)C(=O)CCSC[C@H](NC(=O)[C@H](C)N)C(=O)N[C@@H](CC(=O)O)C(=O)N[C@@H](CC(C)C)C(=O)N[C@@H]([C@@H](C)O)C(=O)N[C@@H]([C@@H](C)O)C(=O)N[C@@H](Cc1c[nH]cn1)C(=O)N[C@@H](CC(N)=O)C(=O)N2
notes: scaffold TATA

Numbered stars: 1 amine (or outer) side, 2 acyl side, 3 side chain; on linkers, the order of the positions; unused ones are H or OH. Bridge positions count the residues as written; N and C are the ends. Square brackets hold non-standard residues; d marks the D form. Ends that are not written are not given here. * marks the point of attachment. TATA = O=C(CC[*:1])N1CN(C(=O)CC[*:2])CN(C(=O)CC[*:3])C1; Ala(4-thiazolyl) = N[C@@H](Cc1cscn1)C(=O)O; 1Nal = N[C@@H](Cc1cccc2ccccc12)C(=O)O; 2Pal = N[C@@H](Cc1ccccn1)C(=O)O; Cba = N[C@@H](CC1CCC1)C(=O)O; Pent4ynoyl = C#CCCC(=O)*

T1 sequence (O76036 22-255 limits assumed): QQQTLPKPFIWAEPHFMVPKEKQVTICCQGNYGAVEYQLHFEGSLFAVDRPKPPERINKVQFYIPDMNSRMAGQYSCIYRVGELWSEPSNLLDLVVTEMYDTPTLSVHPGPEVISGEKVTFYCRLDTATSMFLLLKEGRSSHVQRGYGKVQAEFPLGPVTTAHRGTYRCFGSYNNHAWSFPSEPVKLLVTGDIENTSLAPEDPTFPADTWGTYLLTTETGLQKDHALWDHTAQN

This assay addresses T1, Human NKp46 Fc tag (Acro Biosystems, NC1-H5257) (human, UniProt O76036 22-255).
T1 construct: bought; also called Fc-tagged human NKp46
Briefly: SPR Method 1 and/or 2. The method, then: The SPR analysis was run at 25° C. and a flow rate of 50 μl/min with 60 seconds association and 200-400 seconds dissociation time. Data were corrected for DMSO excluded volume effects. All data were double-referenced for blank injections and reference surface using standard processing procedures and data processing and kinetic fitting were performed using Scrubber software, version 2.0c (BioLogic Software). Data were fitted using simple 1:1 binding model allowing for mass transport effects where appropriate.
For analysis of peptide binding, a Biacore 8k+ instrument was used with a CM5 chip (Cytiva). All experiments were carried out at 25° C. Anti-human IgG (Fc) antibody (Cytiva) was immobilized on all flow cells by standard amine coupling chemistry. The running buffer was HBS-N(Cytiva, 10 mM HEPES, 0.15 M NaCl, pH 7.4) and the flow rate was 10 μL/min. The carboxymethyl dextran surface was activated with a 1:1 ratio of 0.4 M 1-ethyl-3-(3-dimethylaminopropyl) carbodiimide hydrochloride (EDC)/0.1 M N-hydroxy succinimide (NHS) (Cytiva) for 420s. […] Residual activated groups were blocked with a 420 s injection of 1 M ethanolamine (pH 8.5). The final surface density was 3000-5000 RU. Fc-tagged human NKp46 was diluted to 0.1 μM in HBS-N and was captured on flow cell 2 only of the sensor chip at a flow rate of 10 μL/min to 500-1000 RU. The buffer was then changed to PBS-P+(Cytiva) supplemented with 2% DMSO. […] The flow rate was 50 μL/min with 60 s association and 400 s dissociation. Data were corrected for DMSO volume exclusion effects. All data were double-referenced against blank injections and reference surface response using standard processing procedures. Data processing and kinetic fitting was performed using Biacore Insight Evaluation Software with Extended Screening and Characterization Extension (Cytiva). Data were fitted using steady state affinity 1:1 binding model to determine KD. Data were fitted using kinetic 1:1 binding model to determine kinetic constants where appropriate.
As to B1, the Kd (usually the concentration at which binding is half-saturated) came to 3.01 µM. On to Ac-CDLTTHNCQWGIC-NH2 (linker 1-8-13 via TATA, scaffold TATA) [BCY18260], for which the Kd turned out to be 1.24 µM.

Turning to B2, the dissociation constant (Kd) came out at 0.042 µM.

B3 came in with a Kd of 0.06 µM.

B4 returned an equilibrium dissociation constant (Kd) of 2.47 µM. With B5, the Kd turned out to be 1.27 µM. Regarding Ac-ACDLTTHNCQWGICA-NH2 (linker 2-9-14 via TATA, scaffold TATA) [BCY18261], the Kd stood at 0.543 µM. ACDLTTHNCQWGICA-NH2 (linker 2-9-14 via TATA; also: scaffold TATA, TATB or TBMT, scaffold TATA) [BCY15107] gave a Kd of 0.396 µM. In turn, ACDLTLHNCQWGICA-NH2 (linker 2-9-14 via TATA; also: scaffold TATA, TATB or TBMT, scaffold TATA) [BCY18278] displayed a Kd of 0.335 µM. The same measure for ACNLTTHNCQWGICA-NH2 (linker 2-9-14 via TATA; also: scaffold TATA, TATB or TBMT, scaffold TATA) [BCY18273]: 0.326 µM; for B6: 1.46 µM; for ACNLQNPCMKFPCAK(Pent4ynoyl)-NH2 (linker 2-8-13 via TATA (inferred), scaffold TATA) [BCY18004]: 0.414 µM. Regarding ACLLHDHCPNTHPKLCAK(Pent4ynoyl)-NH2 (linker 2-8-16 via TATA (inferred), scaffold TATA) [BCY18005], the Kd was found to be 0.729 µM. With B7, binding was characterised by a dissociation constant (Kd) of 0.0081 µM. Consider ACDLTT[His3Me]NCQWGICA-NH2 (linker 2-9-14 via TATA; not fully specified, scaffold TATA) [BCY18279], for which the Kd stood at 0.599 µM.

In turn, ACDLTT[His1Me]NCQWGICA-NH2 (linker 2-9-14 via TATA; not fully specified, scaffold TATA) [BCY18281] yielded a Kd of 0.424 µM. The same measure for B8: 0.661 µM. In turn, B9 had a Kd of 0.637 µM. Regarding ACDLTTHNC[Cba]WGICA-NH2 (linker 2-9-14 via TATA, scaffold TATA) [BCY18286], the Kd was determined as 1.23 µM.

The values are drawn from patent publication US20240108738A1 (Bicycle, published 2024).
